A short description of the data set: label from the status in PepcDB records.

Regarding “MDSKQQRIGVIGTGAIGGFYGLMLAHAGHDVHFLLRSEFEAVNRAGLSLNSAVHGFRRLAPVQAYHSAQDMPPCDWLLVGAKTTGNDELAPLIRAAAAPGAKVLLLQNGLGVEERLRPLLPESLHLLGGLCFICVHRGEPGVIEHQAYGGVNLGYHSGPADERRRREIVEEGAALFRESGLESTAMPDLEQARWQKLVWNIPYNGLSVLLKSSTAPLMANADSRSLIEAIMEEVIGAAGACGFILPEGYADQLLAATERMPDYRPSMYHDFAHGRPLELAAIYAAPLARAAAAGYR”, the protein production entry is given as “failed”.
As for “MDSLRFNLQQSPFQLKPRILRPRITNISNRIDETDPRPSSSAGRIQRLVLNNEGRTKLNADPDREFYSYPRFVNHVDDSFISSLTELYRNRLRPGSTVLDLMSSWVSHLPEEVKYEKVVGHGLNAQELARNPRLDYFFVKDLNEDQKFEFEDKYFDAVLCSVGVQYLQQPEKVFAEVYRVLKPGGVLIVSFSNRMFYEKAIRVWRDGTEYSRIQLVVQYFQSIEGFTQPEIIRQQPGAQISVLTRLMGFIGLASTPDPFNAVIAYKNFKPIYE”, the entry is “failed”; as for “MDSQELKTLINYYCQERYFHHVLLVASEGIKRYGSDPVFRFYHAYGTLMEGKTQEALREFEAIKNKQDVSLCSLLALIYAHKMSPNPDREAILESDARVKEQRKGAGEKALYHAGLFLWHIGRHDKAREYIDRMIKISDGSKQGHVLKAWLDITRGKEPYTKKALKYFEEGLQDGNDTFALLGKAQCLEMRQNYSGALETMNQIIVNFPSFLPAFVKKMKLQLALQNWDQTVETAQRLLLQDSQNVEALRMQALYYVCREGDIEKASTKLENLGNALDAMEPQNAQLFYNITLAFSRTCGRSQLILQKIQTLLERAFSLNPQQSEFATELGYQMILQGRVKEALKWYKTAMTLDETSVSALVGFIQCQLIEGQLQDADQQLEFLNEIQQSIGKSAELIYLHAVLAMKKNKRQEEVINLLNDVLDTHFSQLEGLPLGIQYFEKLNPDFLLEIVMEYLSFCPMQVSNYGTYFQGCVYLMFYERT”, “failed”; as for “MDSQTGVTRRRLLLGLGSGLGLLGGGGAYVYWSLQGDSGEYTAPNSQPVVTTRGLLDSAEEPAAETEGAWSFDDASEVFLFVHGFSTDAETARDNAYTAQLALGEYTSAPVVAYSWDSDVEWEQAKDNAVANRTLLAQWLMEWAETDGRPVHVLAHSLGARVTGETLRVLAEQGATDVLASVSLLGGAIPYDSVVQGGRYGDAIEAVDAPVSNFYSQNDKVLSWVYRASDRTHAVGHAGTRDAGPLPDGYQDVNVTDLVADHYSYFEPGEGCLARVVAEIE”, “failed”.
Under “MDSRLAMFAPCPRGLEQILADELLALGAGDIAPADGGVAFAGDARLMMAVNLHSRTASRVLLRLAHGGYHAEQDIYRLAMSVDWPRWFEVSRTIKLKADGIAARVKSLDYIGLTVKDAICDRFRQAHLGRPSVDTRHPDVRVNVFLTADEATIYLDTSGEPLFKRGWREETGEAPLRENLAAGILLLAGYDGSQPLLDPMCGSGTFLVEAADIALNRAPGRARRFGFEALSSFDSAAWEKLQQDARKAEQPASSLAIRGSDRSQAMVNIARANLERAGLAELVEVSAADVTASRPHAEHGLIVSNPPYGVRLEEQDQLAAWYPELGDWLKAHFAGWTACLFSGDLRLGKLIRLAPKRRTPLFNGSLQCRLFVINMVEGSARKQKDGDEAEIETGDEQ” stands “failed”.
Under “MDSSREANRKHDAEEKREDEKTSLMEVNLMVVLLSQLSTKKEDENGLEKERRDHVAHEARESRARANKRFMKDTKLMEKRTHVLQPMAKEFRHYRKM” stands “failed”.
“MDTCGVGYVALGEAGPVGNMTVVDSPGQEVLNQLDVKTSSEMTSAEASVEMSLPTPLPGFEDSPDQRRLPPEQESLSRLEQPDLSSEMSKVSKPRASKPGRKRGGRTRKGPKRPQQPNPPSAPLVPGLLDQSNPLSTPMPKKRGRKSKAELLLLKLSKDLDRPESQSPKRPPEDFETPSGERPRRRAAQVALLYLQELAEELSTALPAPVSCPEGPKVSSPTKPKKIRQPAACPGGEEVDGAPRDEDFFLQVEAEDVEESEGPSESSSEPEPVVPRSTPRGSTSGKQKPHCRGMAPNGLPNHIMAPVWKCLHLTKDFREQKHSYWEFAEWIPLAWKWHLLSELEAAPYLPQEEKSPLFSVQREGLPEDGTLYRINRFSSITAHPERWDVSFFTGGPLWALDWCPVPEGAGASQYVALFSSPDMNETHPLSQLHSGPGLLQLWGLGTLQQESCPGNRAHFVYGIACDNGCIWDLKFCPSGAWELPGTPRKAPLLPRLGLLALACSDGKVLLFSLPHPEALLAQQPPDAVKPAIYKVQCVATLQVGSMQATDPSECGQCLSLAWMPTRPHQHLAAGYYNGMVVFWNLPTNSPLQRIRLSDGSLKLYPFQCFLAHDQAVRTLQWCKANSHFLVSAGSDRKIKFWDLRRPYEPINSIKRFLSTELAWLLPYNGVTVAQDNCYASYGLCGIHYIDAGYLGFKAYFTAPRKGTVWSLSGSDWLGTIAAGDISGELIAAILPDMALNPINVKRPVERRFPIYKADLIPYQDSPEGPDHSSASSGVPNPPKARTYTETVNHHYLLFQDTDLGSFHDLLRREPMLRMQEGEGHSQLCLDRLQLEAIHKVRFSPNLDSYGWLVSGGQSGLVRIHFVRGLASPLGHRMQLESRAHFNAMFQPSSPTRRPGFSPTSHRLLPTP”: the protein production entry is recorded as “failed”.
Under “MDTDNNLTFVDFYYRWLEITKLDIINDTSYKRYITAIKAFKDCFGNKLISDIDSLSYQKFLKDYGRGHFLNNGQLRPRTSNTVSKMNNCLKQAFESAVEQGYIKKNLEHHHHHH” stands “failed”; under “MDTEMLIDKYQLNDSEAAVLRFMDKNRDCLKSLGIREVAKASYVSTTAIINMAKKIGYSGYSELVFAYGNKHSSISFPENFSNEEKDEFIRLLSRYREKRIMVLGSGFSQNIANHFSEMLNLYGFRATANSHLEFLRENVEKDVLIFIVSNSGDTLRLAELVKLAKNHHIDLIAFVGEKKSKIGQLATLTISTETYNPQVVSEYQPNLFFGTALNQFELLLSEALKSIFI”, “not failed”.
As for “MDTPNKDDSIIRFSVSLQQNLLDELDNRIIKNGYSSRSELVRDMIREKLVEDNWAEDNPNDESKIAVLVVIYDHHQRELNQRMIDIQHASGTHVLCTTHIHMDEHNCLETIILQGNSFEIQRLQLEIGGLRGVKFAKLTKASSFEYNE”, the entry is “failed”; as for “MDTQSLVPLSTLKQGEKAYVVDLELNGLLRRRVLDLGIVPGTSLQCVGTAPAGDPIAYLVRGTVIALRSEDARSIRVNSALV”, “failed”; as for “MDTSNATSVVNVSASSSTSTIYDLGNMSKDEVVKLFEELGVFQAAILMFSYMYQAQSNLSIAKFADMNEASKASTTAQKMANLVDAKIADVQSSTDKNAKAKLPQDVIDYINDPRNDISVTGIRDLSGDLSAGDLQTVKAAISAKANNLTTVVNNSQLEIQQMSNTLNLLTSARSDVQSLQYRTISAISLGK”, “failed”.
As for “MDTVDLRHLDENLHHARTQFEVWARGRLSNLEEVQRTWQETTARVSRETETLVQRRTQFEAAAARLQERLEAEREELDALERGIAQLEARAAALPVRQQELEQEIAERRQEFERRRALLNACEEARRTRLLHLQKALVWYRDRLGLRFQRVGAASATEAGRVDGKVRVIFRHIDSRAPDREFAFTVYVDEDADLFRVEDCVPDIDVMKPTAGAANVRLAQMVETLNRTNDFGAFVAQMRRRFKAWVQMESTDQLAGRQA”, the entry is “failed”.
Take “MDTWKVGPVELKSRLILGSGKYEDFGVMREAIAAAKAEVVTVSVRRVELKAPGHVGLLEALEGVRLLPNTAGARTAEEAVRLARLGRLLTGERWVKLEVIPDPTYLLPDPLETLKAAERLIEEDFLVLPYMGPDLVLAKRLAALGTATVMPLAAPIGSGWGVRTRALLELFAREKASLPPVVVDAGLGLPSHAAEVMELGLDAVLVNTAIAEAQDPPAMAEAFRLAVEAGRKAYLAGPMRPREAASPSSPVEGVPFTPTGPRPGRGPQ”: the protein production result is listed as “not failed”.
Under “MDTYMIDAELEHYLGERLSSSSRQALCRLHVRACARFHGAELEEYRRRLRAHARAYARLGRMLQSPFRHMETALFLSSFTLFVAGIIMVVNGDLSALVACGTAAGLVGMIECARKLAGHWHRYGVMEAVYRELEEQLANG” stands “failed”.
“MDVAGEKQQRKGEAIARIEAEKNAYTVAQLADEYFERMIAGRWKHPNIVRSRIEKDIKPAIGSLKVEDVKPRHIDDVLKAVMKRGAPSIANDTLRWLKRMFNYAIKRHIIEYNPAAAFLEHHHHHH”: the protein production result was “failed”.

The values are drawn from a protein production outcome set (Wang et al. 2014).
